The test concerns the target T1, Recombinant mouse neogenin-Fc chimera protein (mouse, UniProt P97798 37-1136).
T1 construct: neogenin, mouse, extracellular domain (ECD); No catalogue number printed; detected by an anti-IgG Fc antibody; also called neogenin-ECD-Fc; Fc-fused neogenin ECD; source: bought: R&D Systems
T1 sequence (looked up): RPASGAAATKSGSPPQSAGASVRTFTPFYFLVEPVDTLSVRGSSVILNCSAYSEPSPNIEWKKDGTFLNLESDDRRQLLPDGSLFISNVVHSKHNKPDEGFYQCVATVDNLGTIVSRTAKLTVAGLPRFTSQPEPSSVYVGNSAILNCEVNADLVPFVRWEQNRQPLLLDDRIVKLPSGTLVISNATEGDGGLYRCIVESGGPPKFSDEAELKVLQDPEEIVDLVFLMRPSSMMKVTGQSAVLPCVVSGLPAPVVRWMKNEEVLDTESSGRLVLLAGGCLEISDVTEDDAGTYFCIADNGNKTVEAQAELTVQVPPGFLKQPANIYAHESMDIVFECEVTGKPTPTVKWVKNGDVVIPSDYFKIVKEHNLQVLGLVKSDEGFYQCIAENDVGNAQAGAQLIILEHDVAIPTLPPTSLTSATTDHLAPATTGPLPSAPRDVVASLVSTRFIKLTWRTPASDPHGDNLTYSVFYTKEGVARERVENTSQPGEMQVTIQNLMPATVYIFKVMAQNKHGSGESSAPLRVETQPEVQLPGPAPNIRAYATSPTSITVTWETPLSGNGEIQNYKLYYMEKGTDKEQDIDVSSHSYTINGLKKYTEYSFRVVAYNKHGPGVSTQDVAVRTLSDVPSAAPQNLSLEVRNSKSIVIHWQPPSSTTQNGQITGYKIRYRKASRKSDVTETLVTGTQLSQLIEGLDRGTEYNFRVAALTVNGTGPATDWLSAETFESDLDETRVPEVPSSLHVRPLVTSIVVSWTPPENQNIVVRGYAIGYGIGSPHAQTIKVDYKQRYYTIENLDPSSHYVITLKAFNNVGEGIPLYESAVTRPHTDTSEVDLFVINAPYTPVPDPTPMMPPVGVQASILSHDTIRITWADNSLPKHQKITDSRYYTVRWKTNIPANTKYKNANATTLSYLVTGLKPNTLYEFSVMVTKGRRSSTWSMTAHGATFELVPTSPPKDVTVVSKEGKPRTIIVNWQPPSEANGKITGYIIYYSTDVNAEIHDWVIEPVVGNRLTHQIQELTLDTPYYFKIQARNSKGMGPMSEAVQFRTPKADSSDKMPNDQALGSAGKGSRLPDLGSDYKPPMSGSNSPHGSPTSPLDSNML
The test is described as follows: ELISA; synthetic TAT-RGMa peptides coated on the plate (5 µg/mL, 16 h, 4°C), blocked with 5% BSA/PBS; neogenin-Fc added at 1 µg/mL for 1 h; detected with anti-IgG Fc antibody and HRP secondary, A450. To be noted: both partners purified. In general terms: ELISA stands for enzyme-linked immunosorbent assay.

B1: RGMa peptide 4 (aa 284-293) fused with an N-terminal TAT protein (peptide)
peptide: YGRKKRRQRRRRQVGRYLTFA
notes: The TAT-fused form was used in the ELISA; peptide 4 without TAT was used in the growth cone collapse assay; also called Pep4; source: synthetic peptide (SIGMA Life Science, Japan)
On to B1, for which the binding result is on record as “binds”.

Values taken from article PMC3291610, “Identification of the Neogenin-Binding Site on the Repulsive Guidance Molecule A” (PLoS ONE, 2012).
